From paper PMC3285272 (Cell, 2012)
Changes are numbered by the printed parent chain.

Columns and labels:
Test in all cases: pull-down
[1] = molecular target: T1, βδ-COP dimer with full-length β-COP L124E (R. norvegicus | B. taurus, UniProt P23514 1-953; P53619 1-511, L124E)
T1 sequence (looked up) 1: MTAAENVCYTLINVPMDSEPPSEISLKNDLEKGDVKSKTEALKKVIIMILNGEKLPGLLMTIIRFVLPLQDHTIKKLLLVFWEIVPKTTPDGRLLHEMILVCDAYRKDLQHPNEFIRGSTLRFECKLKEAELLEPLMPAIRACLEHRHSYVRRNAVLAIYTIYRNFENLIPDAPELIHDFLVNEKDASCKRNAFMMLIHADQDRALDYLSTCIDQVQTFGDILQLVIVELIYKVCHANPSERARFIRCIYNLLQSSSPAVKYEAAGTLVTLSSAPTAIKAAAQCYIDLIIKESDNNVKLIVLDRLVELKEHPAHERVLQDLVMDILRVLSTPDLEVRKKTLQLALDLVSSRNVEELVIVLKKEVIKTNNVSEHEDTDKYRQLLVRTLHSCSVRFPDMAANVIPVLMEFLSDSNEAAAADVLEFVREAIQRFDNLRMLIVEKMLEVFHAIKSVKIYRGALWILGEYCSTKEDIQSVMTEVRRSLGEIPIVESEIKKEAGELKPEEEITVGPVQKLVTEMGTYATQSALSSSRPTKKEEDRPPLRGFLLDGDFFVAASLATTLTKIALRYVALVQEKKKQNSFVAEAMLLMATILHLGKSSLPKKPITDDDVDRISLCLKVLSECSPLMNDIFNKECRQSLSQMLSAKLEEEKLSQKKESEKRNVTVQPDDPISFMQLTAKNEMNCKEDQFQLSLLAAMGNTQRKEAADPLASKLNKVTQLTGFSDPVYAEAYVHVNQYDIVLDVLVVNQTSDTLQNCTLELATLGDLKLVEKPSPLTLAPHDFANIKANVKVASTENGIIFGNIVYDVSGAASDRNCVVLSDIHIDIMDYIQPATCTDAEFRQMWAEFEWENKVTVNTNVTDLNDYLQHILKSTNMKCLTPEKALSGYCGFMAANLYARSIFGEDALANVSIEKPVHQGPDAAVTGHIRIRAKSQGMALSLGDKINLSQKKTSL
T1 sequence (looked up) 2: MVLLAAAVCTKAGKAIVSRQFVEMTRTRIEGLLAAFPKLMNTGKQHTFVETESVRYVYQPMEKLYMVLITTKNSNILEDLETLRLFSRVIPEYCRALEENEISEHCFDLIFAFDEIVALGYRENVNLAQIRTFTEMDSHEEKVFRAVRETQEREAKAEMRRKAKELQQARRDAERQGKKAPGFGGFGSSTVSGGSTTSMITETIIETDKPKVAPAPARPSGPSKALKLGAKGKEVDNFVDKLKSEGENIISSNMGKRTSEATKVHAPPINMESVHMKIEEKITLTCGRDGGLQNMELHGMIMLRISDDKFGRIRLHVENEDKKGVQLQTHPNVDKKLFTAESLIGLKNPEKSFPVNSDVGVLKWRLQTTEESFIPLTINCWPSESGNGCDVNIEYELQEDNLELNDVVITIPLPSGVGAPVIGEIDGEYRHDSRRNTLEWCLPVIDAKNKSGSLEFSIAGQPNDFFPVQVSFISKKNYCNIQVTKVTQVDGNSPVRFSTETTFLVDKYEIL

full-length βδ-COP dimer = molecular target: T2, full-length βδ-COP dimer (R. norvegicus | B. taurus, UniProt P23514 1-953; P53619 1-511)
T2 sequence (looked up) 1: T1 sequence (looked up) 1 with E124L
T2 sequence (looked up) 2: T1 sequence (looked up) 2

[2] = molecular target: full-length βδ/γζ-COP complex (R. norvegicus | B. taurus, UniProt P23514 1-953; P53619 1-511; P53620 1-874; P35604 1-177)

Measured: binding result

B1: S. cerevisiae Arf1 (residues 18–181) with a C-terminal GST tag (domain or fragment, UniProt P11076 18-181, looked up)
chain: MRILMVGLDGAGKTTVLYKLKLGEVITTIPTIGFNVETVQYKNISFTVWDVGGQDRIRSLWRHYYRNTEGVIFVVDSNDRSRIGEAREVMQRMLNEDELRNAAWLVFANKQDLPEAMSAAEITEKLGLHSIRNRPWFIQATCATSGEGLYEGLEWLSNSLKNST
binds: all assays above
